Biological target: the molecule itself
Assay: cross-linking

B1: IMPDH1 (enzyme)
chain: not shown
stoichiometry N: 4

From doi:10.1101/2021.11.02.467024 (bioRxiv, 2021)
